Results as given in US20050232926A1, “Antibodies specific for cancer associated antigen SM5-1 and uses thereof” (Oncomax Acquisition Corp., priority 2003, published 2005).

Columns and labels:
[1] = test system: SM5-1 antigen; assay: Competition binding assay
[2] = biological target: human SM5-1 antigen (human); assay: BIAcore (SPR), method of Karlsson et al.; antigen preparation and format not stated
[3] = test system: hepatocelluer carcinoma cell line QYC; assay: Antigen binding activity by FCM; design: species or system human; settings: compared with chSM5-1
Procedure: The humanized VL and VH were cloned into pMG18-3K expression vector and was expressed transiently in COS cells, yielding humanized version. Humanized antibody in COS cell culture supernatant was quantitated by ELISA and the binding of this version to hepatocelluer carcinoma cell line QYC was determined by FCM. […] The important FR residues that may have influences on binding activity were analyzed and the backmutation assay was carried out. […] The humanized version was designated as ReSM5-1 and its amino acid sequence and nucleotide sequence of both the heavy chain and the light chain shown in Table 3 below.

[4] = test system: QYC cells; assay: Antibody-dependent cell mediated cytotoxicity (ADCC); type: cell-based, human; settings: PBL effector to target ratio 20:1, 7 h, FIG. 7
Procedure: Venous blood was taken sterilely from healthy donor and put into sterile 15 ml centrifuge tube containing 20 U/ml heparin. The solution was carefully mixed and equal volume of sterilized PBS was added to dilute the blood.
In a 15 ml centrifuge tube, 6 ml room temperature pre-warmed 100% lymphocytes isolation fluid (obtained from CACS, Cellular Biology Institute) was added. Along the tube wall of the tilted tube, 6 ml diluted anti-coagulation peripheral blood was added slowly into the tube without damaging the interface.
The tube was centrifuged at 20° C., 800 g for 30 min with brake turned off. After the centrifuge, three layers were formed. The three layers (from above to the bottom) were blood plasma layer, cell separation liquid layer, red and granular cell layer. A white frosted glass-like layer between the plasma layer and cell separation liquid layer was the layer containing lymphocytes and mononuclear cells. This white layer was taken out using a pipette and put into another 15 ml sterile centrifuge tube. PBS was added into the centrifuge tube to dilute the PBL suspension and then centrifuged at 200 g for 5 min. The pellet was washed 2 times with PBS. […]
QYC cells at the logistically growing stage were taken out from incubator. […] Cells were counted, and the concentration was adjusted to 3×10^5/ml. […]
Cytotoxicity Detection Kit by Roche's Corporation was used. […] OD was read at 490 nm.

B1: humanized anti-SM5-1 antibody (ReSM5-1) (antibody, V domains shown)
VH: QVQLVQSGGGVVQPGRSLRLSCKASGYTFTSYVMHWVRQAPGKGLEWIGYIVPYNDGTKYNEKFKGRFTISSDKSKSTAFLQMDSLRPEDTAVYYCARGSRYDWYLDYWGQGTPVTVSS
VL: NIMMTQSPSSLSASVGDRVTITCKSSQSVLYSSNQKNYLAWYQQTPGKAPKLLIYWASTRESGVPSRFSGSGSGTDYTFTISSLQPEDIATYYCHQYFSSYTFGQGTKLQITR
Q: For B1, which avidity [1] is on record?
A: The avidity was “equivalent avidity as the murine SM5-1 or chimeric SM5-1 antibody”.

Q: And the Kd [2]?
A: Its Kd is 9.31 nM.

Q: What about the antigen binding activity [3] of the same molecule?
A: Its antigen binding activity is “same antigen binding activity as chSM5-1”.

Q: And the “anti-neoplasm effect via ADCC” value [4]?
A: The value was “induced the apoptosis and inhibit the growth of tumor cells through ADCC pathway”.

B2: chSM5-1: mouse-human chimeric antibody with mSM5-1 variable regions (SEQ ID NO:3, 4) and human constant regions (antibody, V domains shown)
VH: EVQLQQSGPELVKPGASVKMSCKASGYTFTSYVMHWVKQKPGQGLDWIGYIVPYNDGTKYNEKFKGKATLTSDKSSSTAYMELSRLTSEDSAVYYCVYGSRYDWYLDVWGAGTTVTVSS
VL: NIMMTQSPSSLAVSAGEKVTMSCKSSQSVLYSSNQKNYLAWYQQKPGQSPKLLIYWASTRESGVPDRFTGSGSGTDFTLTISSVQAEDLAVYYCHQYFSSYTFGGGTKLEIKR
modifications: human constant regions; Mus Musculus
Q: With B2 as the molecule, how does the “anti-neoplasm effect via ADCC” value [4] read?
A: Its value is “induced the apoptosis and inhibit the growth of tumor cells through ADCC pathway”.
